Experimental findings from patent US20100107264A1 are described below.

Several values for one entry are separate records, joined by “and”; a condition that tells them apart may be missing. Equal entries are not always repeated.

For the assay, the target named is M144 mutant NS1A protein (L-to-A substitution at position 144) (influenza A/Udorn/72 virus) (UniProt P03495).

Take “GST-F2F3 (GST fusion of CPSF30 amino acids 61-121, second and third zinc fingers)”: the percent of wild-type binding (% of wild-type binding) is 5 and 10.
